Here are results for 5 molecules from patent US8632989B1, “Mutant insulin degrading enzyme and methods of use” (University of Kentucky Research Foundation, priority 2011, dated 2014).

Like-named read-outs stand apart in the source and are kept apart here.

The target in series [1] is T1, Abz-GGFLRKHGQ-EDDnp.
T1 chain: GGFLRKHGQ

For series [2], the system named is Abz-GGFLRKHGQ-EDDnp. Nature of the series: Enzyme activity assay, kinetics of wild type rIDE and distal site mutants with fluorogenic substrate. Particulars: Abz-GGFLRKHGQ-EDDnp substrate. Format: biochemical. The protocol:
FIG. 17. Effects of distal site mutations. (A) Comparison of the kinetics of wild type IDE with the distal site mutants. Activity was measured with varying amounts of Abz-[…]-EDDnp (SEQ ID NO:3) substrate as indicated. Either hyperbolic (Michaelis-Menten equation) or sigmoidal curves (Hill equation) were fit to the data. (B) Effect of bradykinin on the activity of wild type IDE and the distal site mutants. (C) Activation of wild type IDE and distal site mutants by ATP. Relative activity is the fold activation above the level of the wild type enzyme alone.
The activity of IDE was measured by following the increase in fluorescence upon hydrolysis at the L-R bond of the fluorogenic peptide Abz-[…]-EDDnp (SEQ ID NO:3) on a SpectraMax Gemini XS fluorescence plate reader using an excitation wavelength of 318 nm and emission wavelength of 419 nm. Reactions were carried out in 200 μl volumes containing 50 mM Tris-HCl, pH 7.4, 1.92 μg of wild type rIDE, 4.6 μg of rIDE-V360S, 4.3 μg rIDE-I374S, or 1.63 μg of rIDE-Y609F. For measurements of activation by bradykinin, IDE activity was determined with 10 μM Abz-[…]-EDDnp (SEQ ID NO:3) as substrate in 50 mM Tris-HCl buffer, pH 7.4. The amount of protein was 0.5 μg for wild type rIDE and 5 μg for each of the IDE distal-site mutants. Data were analyzed using Softmax 4.0 (Molecular Devices) and kinetic parameters calculated with Prism (Graphpad Software). […] Under these assay conditions, both wild type and mutant rIDE are almost completely dimeric.

Chain of bradykinin, P01042 (P01042 whole entry, looked up): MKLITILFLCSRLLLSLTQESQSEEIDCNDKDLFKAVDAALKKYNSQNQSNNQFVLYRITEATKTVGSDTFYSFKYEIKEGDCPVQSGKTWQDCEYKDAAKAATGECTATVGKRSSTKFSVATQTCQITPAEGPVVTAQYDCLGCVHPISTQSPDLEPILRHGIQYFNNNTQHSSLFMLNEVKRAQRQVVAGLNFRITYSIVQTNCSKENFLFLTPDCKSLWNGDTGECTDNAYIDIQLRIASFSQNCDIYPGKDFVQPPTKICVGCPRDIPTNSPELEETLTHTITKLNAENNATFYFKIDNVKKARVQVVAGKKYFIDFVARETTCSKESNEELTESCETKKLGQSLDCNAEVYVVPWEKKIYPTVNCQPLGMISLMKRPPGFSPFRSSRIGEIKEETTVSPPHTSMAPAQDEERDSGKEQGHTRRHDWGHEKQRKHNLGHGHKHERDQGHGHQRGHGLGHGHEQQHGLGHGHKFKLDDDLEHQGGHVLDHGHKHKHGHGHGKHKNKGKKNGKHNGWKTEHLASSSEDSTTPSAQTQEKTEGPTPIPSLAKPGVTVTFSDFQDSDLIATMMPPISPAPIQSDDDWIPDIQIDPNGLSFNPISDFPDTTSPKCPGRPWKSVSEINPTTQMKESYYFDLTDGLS

B1: wild type rat IDE (rIDE), Example 2 (protein)
chain: MNNPAIQRIEDHIVKSPEDKREYRGLELANGIKVLLISDPTTDKSSAALDVHIGSLSDPPNIPGLSHFCEHMLFLGTKKYPKENEYSQFLSEHAGSSNAFTSGEHTNYYFDVSHEHLEGALDRFAQFFLCPLFDASCKDREVNAVDSEHEKNVMNDAWRLFQLEKATGNPKHPFSKFGTGNKYTLETRPNQEGIDVREELLKFHSTYYSSNLMAICVLGRESLDDLTNLVVKLFSEVENKNVPLPEFPEHPFQEEHLKQLYKIVPIKDIRNLYVTFPIPDLQQYYKSNPGHYLGHLIGHEGPGSLLSELKSKGWVNTLVGGQKEGARGFMFFIINVDLTEEGLLHVEDIILHMFQYIQKLRAEGPQEWVFQECKDLNAVAFRFKDKERPRGYTSKIAGKLHYYPLNGVLTAEYLLEEFRPDLIDMVLDKLRPENVRVAIVSKSFEGKTDRTEQWYGTQYKQEAIPEDVIQKWQNADLNGKFKLPTKNEFIPTNFEILALEKDATPYPALIKDTAMSKLWFKQDDKFFLPKACLNFEFFSPFAYVDPLHCNMAYLYLELLKDSLNEYAYAAELAGLSYDLQNTIYGMYLSVKGYNDKQPILLKKITEKMATFEIDKKRFEIIKEAYMRSLNNFRAEQPHQHAMYYLRLLMTEVAWTKDELKEALDDVTLPRLKAFIPQLLSRLHIEALLHGNITKQAALGVMQMVEDTLIEHAHTKPLLPSQLVRYREVQLPDRGWFVYQRRNEVHNNCGIEIYYQTDMQSTSENMFLELFCQIISEPCFNTLRTKEQLGYIVFSGPRRANGIQGLRFIIQSEKPPHYLESRVEAFLITMEKAIEDMTEEAFQKHIQALAIRRLDKPKKLSAECAKYWGEIISQQYNYDRDNIEVAYLKTLSKDDIIKFYKEMLAVDAPRRHKVSVHVLAREMDSCPVVGEFPSQNDINLSEAPPLPQPEVIHNMTEFKRGLPLFPLVKPHINFMAAKL
Consider B1, for which the “Heterotropic activation of Abz-GGFLRKHGQ-EDDnp hydrolysis” value (“Heterotropic activation” for short) in the series with bradykinin, P01042 is “approximately 4-fold for the wild type enzyme”. In addition, in the series with Abz-GGFLRKHGQ-EDDnp [1], the Hill coefficient worked out at 1.8, the Km came out at 15.9 µM, the Specific activity is on record as 8,131 nmol/min/mg for the wild type enzyme and the Vmax turned out to be 35.5 nmol/min/mg.

B2: rIDE-Y609F (protein)
chain: MNNPAIQRIEDHIVKSPEDKREYRGLELANGIKVLLISDPTTDKSSAALDVHIGSLSDPPNIPGLSHFCEHMLFLGTKKYPKENEYSQFLSEHAGSSNAFTSGEHTNYYFDVSHEHLEGALDRFAQFFLCPLFDASCKDREVNAVDSEHEKNVMNDAWRLFQLEKATGNPKHPFSKFGTGNKYTLETRPNQEGIDVREELLKFHSTYYSSNLMAICVLGRESLDDLTNLVVKLFSEVENKNVPLPEFPEHPFQEEHLKQLYKIVPIKDIRNLYVTFPIPDLQQYYKSNPGHYLGHLIGHEGPGSLLSELKSKGWVNTLVGGQKEGARGFMFFIINVDLTEEGLLHVEDIILHMFQYIQKLRAEGPQEWVFQECKDLNAVAFRFKDKERPRGYTSKIAGKLHYYPLNGVLTAEYLLEEFRPDLIDMVLDKLRPENVRVAIVSKSFEGKTDRTEQWYGTQYKQEAIPEDVIQKWQNADLNGKFKLPTKNEFIPTNFEILALEKDATPYPALIKDTAMSKLWFKQDDKFFLPKACLNFEFFSPFAYVDPLHCNMAYLYLELLKDSLNEYAFAAELAGLSYDLQNTIYGMYLSVKGYNDKQPILLKKITEKMATFEIDKKRFEIIKEAYMRSLNNFRAEQPHQHAMYYLRLLMTEVAWTKDELKEALDDVTLPRLKAFIPQLLSRLHIEALLHGNITKQAALGVMQMVEDTLIEHAHTKPLLPSQLVRYREVQLPDRGWFVYQRRNEVHNNCGIEIYYQTDMQSTSENMFLELFCQIISEPCFNTLRTKEQLGYIVFSGPRRANGIQGLRFIIQSEKPPHYLESRVEAFLITMEKAIEDMTEEAFQKHIQALAIRRLDKPKKLSAECAKYWGEIISQQYNYDRDNIEVAYLKTLSKDDIIKFYKEMLAVDAPRRHKVSVHVLAREMDSCPVVGEFPSQNDINLSEAPPLPQPEVIHNMTEFKRGLPLFPLVKPHINFMAAKL
In the case of B2, the “Heterotropic activation” value with bradykinin, P01042 is reported as “is also lost in all three mutants”. Also, in the series with Abz-GGFLRKHGQ-EDDnp [1], the Hill coefficient came to 1.04, the Km was found to be 6.86 µM and the Vmax stood at 2.6 nmol/min/mg.

B3: rIDE-E111F (protein)
chain: MNNPAIQRIEDHIVKSPEDKREYRGLELANGIKVLLISDPTTDKSSAALDVHIGSLSDPPNIPGLSHFCFHMLFLGTKKYPKENEYSQFLSEHAGSSNAFTSGEHTNYYFDVSHEHLEGALDRFAQFFLCPLFDASCKDREVNAVDSEHEKNVMNDAWRLFQLEKATGNPKHPFSKFGTGNKYTLETRPNQEGIDVREELLKFHSTYYSSNLMAICVLGRESLDDLTNLVVKLFSEVENKNVPLPEFPEHPFQEEHLKQLYKIVPIKDIRNLYVTFPIPDLQQYYKSNPGHYLGHLIGHEGPGSLLSELKSKGWVNTLVGGQKEGARGFMFFIINVDLTEEGLLHVEDIILHMFQYIQKLRAEGPQEWVFQECKDLNAVAFRFKDKERPRGYTSKIAGKLHYYPLNGVLTAEYLLEEFRPDLIDMVLDKLRPENVRVAIVSKSFEGKTDRTEQWYGTQYKQEAIPEDVIQKWQNADLNGKFKLPTKNEFIPTNFEILALEKDATPYPALIKDTAMSKLWFKQDDKFFLPKACLNFEFFSPFAYVDPLHCNMAYLYLELLKDSLNEYAYAAELAGLSYDLQNTIYGMYLSVKGYNDKQPILLKKITEKMATFEIDKKRFEIIKEAYMRSLNNFRAEQPHQHAMYYLRLLMTEVAWTKDELKEALDDVTLPRLKAFIPQLLSRLHIEALLHGNITKQAALGVMQMVEDTLIEHAHTKPLLPSQLVRYREVQLPDRGWFVYQRRNEVHNNCGIEIYYQTDMQSTSENMFLELFCQIISEPCFNTLRTKEQLGYIVFSGPRRANGIQGLRFIIQSEKPPHYLESRVEAFLITMEKAIEDMTEEAFQKHIQALAIRRLDKPKKLSAECAKYWGEIISQQYNYDRDNIEVAYLKTLSKDDIIKFYKEMLAVDAPRRHKVSVHVLAREMDSCPVVGEFPSQNDINLSEAPPLPQPEVIHNMTEFKRGLPLFPLVKPHINFMAAKL
In the case of B3, the Specific activity in the series with Abz-GGFLRKHGQ-EDDnp [1] is on record as 5.2 nmol/min/mg for the E111F mutant; in the series on Abz-GGFLRKHGQ-EDDnp [2] it was 5.2 nmol/min/mg.

B4: rIDE-V360S (protein)
chain: MNNPAIQRIEDHIVKSPEDKREYRGLELANGIKVLLISDPTTDKSSAALDVHIGSLSDPPNIPGLSHFCEHMLFLGTKKYPKENEYSQFLSEHAGSSNAFTSGEHTNYYFDVSHEHLEGALDRFAQFFLCPLFDASCKDREVNAVDSEHEKNVMNDAWRLFQLEKATGNPKHPFSKFGTGNKYTLETRPNQEGIDVREELLKFHSTYYSSNLMAICVLGRESLDDLTNLVVKLFSEVENKNVPLPEFPEHPFQEEHLKQLYKIVPIKDIRNLYVTFPIPDLQQYYKSNPGHYLGHLIGHEGPGSLLSELKSKGWVNTLSGGQKEGARGFMFFIINVDLTEEGLLHVEDIILHMFQYIQKLRAEGPQEWVFQECKDLNAVAFRFKDKERPRGYTSKIAGKLHYYPLNGVLTAEYLLEEFRPDLIDMVLDKLRPENVRVAIVSKSFEGKTDRTEQWYGTQYKQEAIPEDVIQKWQNADLNGKFKLPTKNEFIPTNFEILALEKDATPYPALIKDTAMSKLWFKQDDKFFLPKACLNFEFFSPFAYVDPLHCNMAYLYLELLKDSLNEYAYAAELAGLSYDLQNTIYGMYLSVKGYNDKQPILLKKITEKMATFEIDKKRFEIIKEAYMRSLNNFRAEQPHQHAMYYLRLLMTEVAWTKDELKEALDDVTLPRLKAFIPQLLSRLHIEALLHGNITKQAALGVMQMVEDTLIEHAHTKPLLPSQLVRYREVQLPDRGWFVYQRRNEVHNNCGIEIYYQTDMQSTSENMFLELFCQIISEPCFNTLRTKEQLGYIVFSGPRRANGIQGLRFIIQSEKPPHYLESRVEAFLITMEKAIEDMTEEAFQKHIQALAIRRLDKPKKLSAECAKYWGEIISQQYNYDRDNIEVAYLKTLSKDDIIKFYKEMLAVDAPRRHKVSVHVLAREMDSCPVVGEFPSQNDINLSEAPPLPQPEVIHNMTEFKRGLPLFPLVKPHINFMAAKL
On to B4, for which, in the series with bradykinin, P01042, the “Heterotropic activation” value is on record as “is also lost in all three mutants”. In the series with Abz-GGFLRKHGQ-EDDnp [1], the Hill coefficient stood at 1.07, the Km is 8.61 µM and the Vmax came out at 2.01 nmol/min/mg.

B5: IDE^K898A,K899A,S901A (protein)
chain: TMNNPAIQRIEDHIVKSPEDKREYRGLELANGIKVLLISDPTTDKSSAALDVHIGSLSDPPNIPGLSHFCEHMLFLGTKKYPKENEYSQFLSEHAGSSNAFTSGEHTNYYFDVSHEHLEGALDRFAQFFLCPLFDASCKDREVNAVDSEHEKNVMNDAWRLFQLEKATGNPKHPFSKFGTGNKYTLETRPNQEGIDVREELLKFHSTYYSSNLMAICVLGRESLDDLTNLVVKLFSEVENKNVPLPEFPEHPFQEEHLKQLYKIVPIKDIRNLYVTFPIPDLQQYYKSNPGHYLGHLIGHEGPGSLLSELKSKGWVNTLVGGQKEGARGFMFFIINVDLTEEGLLHVEDIILHMFQYIQKLRAEGPQEWVFQECKDLNAVAFRFKDKERPRGYTSKIAGKLHYYPLNGVLTAEYLLEEFRPDLIDMVLDKLRPENVRVAIVSKSFEGKTDRTEQWYGTQYKQEAIPEDVIQKWQNADLNGKFKLPTKNEFIPTNFEILALEKDATPYPALIKDTAMSKLWFKQDDKFFLPKACLNFEFFSPFAYVDPLHCNMAYLYLELLKDSLNEYAYAAELAGLSYDLQNTIYGMYLSVKGYNDKQPILLKKITEKMATFEIDKKRFEIIKEAYMRSLNNFRAEQPHQHAMYYLRLLMTEVAWTKDELKEALDDVTLPRLKAFIPQLLSRLHIEALLHGNITKQAALGVMQMVEDTLIEHAHTKPLLPSQLVRYREVQLPDRGWFVYQRRNEVHNNCGIEIYYQTDMQSTSENMFLELFCQIISEPCFNTLRTKEQLGYIVFSGPRRANGIQGLRFIIQSEKPPHYLESRVEAFLITMEKAIEDMTEEAFQKHIQALAIRRLDKPAALAAECAKYWGEIISQQYNYDRDNIEVAYLKTLSKDDIIKFYKEMLAVDAPRRHKVSVHVLAREMDSCPVVGEFPSQNDINLSEAPPLPQPEVIHNMTEFKRGLPLFPLVKPHINFMAAKL
On to B5, for which, in the series with bradykinin, P01042, the “effect of bradykinin on the rate of Abz-GGFLRKHGQ-EDDnp hydrolysis” value was “the observed rate for IDE^K898A,K899A,S901A was significantly reduced”. Moreover, in the series with Abz-GGFLRKHGQ-EDDnp [1], the Hill coefficient stood at 1.7, the Vmax was found to be 141 nmol/min/mg and the kcat stood at 0.258 s⁻¹.

As a reminder, the Hill coefficient is the slope factor of the fitted curve. A word on the Km: it is the substrate concentration at which the rate is half of its maximum. What is called Vmax is the top rate of the reaction or transport when substrate is in excess. For orientation: kcat means the number of substrate molecules converted per active site and unit of time at saturation.
